# Reference: patent US8846394B2, “Treatment of neurological deficits in the striatum or substanta nigra pars compacta” (Ethicon, Inc., priority 2004, dated 2014)
# Assays:
# [1] = system: adult rodent hippocampal neural progenitors; experiment: Immunocytochemical staining (TuJ1, TH, GFAP) of neural progenitors after 17-day culture with growth factors; type: cell-based, rat
# Protocol: Adult rodent hippocampal neural progenitors were isolated from adult rat brain following previously published methods [Svendson et al., Nat Rev Genet., 5(2) 136-44 (2004)]. Isolated cells were seeded at 1,000 cells/cm^2 into laminin-coated 24 well tissue culture plates (Becton Dickson, Bedford, Mass.).
# Seeded cells were initially grown in a supplemented neuralbasal medium (NBM). The NBM was Neurobasal-A media (Invitrogen, Carlsbad, Calif.) with B27 supplement (Invitrogen, Carlsbad, Calif.), and L-glutamine (4 milliMolar) (Sigma, St. Louis, Mo.). Supplemented NBM also contains epidermal growth factor (EGF) (Sigma, St. Louis, Mo.), at 20 nanograms/milliliter, and basic fibroblast growth factor, (bFGF) (Peprotech, Rocky Hill, N.J.), at 20 nanograms/milliliter).
# Set one of cells was cultured in supplemented NBM for 17 days. Set two of cells was initially cultured in supplemented NBM for 4 days. The supplemented NBM then was removed from the culture plates and cells were cultured in NBM containing MP52 (Biopharm GmbH, Heidelberg, Germany) at 20 nanograms/milliliter for a period of 13 days. Set three of cells was initially cultured in supplemented NBM for 10 days. The supplemented NBM then was removed from the culture plate, and cells were cultured in NMB containing Sonic Hedgehog, (SHH) (Sigma, St. Louis, Mo.), at 200 nanograms/milliliter, and fibroblast growth factor 8 (FGF8) (Peprotech, Rocky Hill, N.J.), at 100 nanograms/milliliter. Set four of cells was initially cultured in supplemented NBM for 10 days. The supplemented NBM then was removed from the culture plates and cells were cultured in NBM containing MP52 at 20 nanograms/milliliter, SHH at 200 nanograms/milliliter, and FGF8 at 100 nanograms/milliliter).
# At the end of the 17-day experimental period, all cultures were fixed with 4 percent paraformaldehyde (Sigma, St. Louis, Mo.) and immunocytochemical staining was performed to evaluate expression of Beta Tubulin III (TuJ1), glial fibrilary acidic protein (GFAP), and tyrosine hydroxylase (TH). […]
# Following immunocytochemical staining, fluorescence was visualized using an Olympus inverted epifluorescent microscope and images were taken with a digital camera and ImagePro software (Media Cybernetics, Silver Spring, Md.). To further quantify the response, fields of cells were counted at a magnification power of 200× to examine the percentage of positive cells for each marker and compared to control samples grown in NBM alone. A minimum of 1,000 cells were counted per condition or, if less, the total number of cells observed in that condition.
# The percentage of cells positive for a given marker was determined by dividing the number of positive cells for a particular marker by the total number of nucleated cells determined by DAPI staining.
# [2] = system: human umbilical cord cells; experiment: Quantitative PCR of Nurr1 and TH mRNA in umbilical postpartum cells after dopaminergic differentiation; type: cell-based
# Protocol: Postpartum cells were isolated from an umbilical cord and placental digestion as described in U.S. patent application Ser. Nos. 10/887,012 and 10/877,446. Briefly, human umbilical cord and placental cells were isolated from explants of postpartum tissue.
# Isolated umbilical and placental cells were seeded at 1,000 cells/cm^2 into laminin coated 24 well tissue culture plates (Corning, N.Y.). Cells were initially seeded in maintenance media (control) as described in nonprov serial no. After 4 days in maintenance media, cells were split into four groups. The first set of cells was switched to NBM supplemented with EGF (20 nanograms/milliliter) and bFGF (20 nanograms/milliliter) and grown for 13 days. Sets two through four were switched to NBM supplemented with EGF (20 nanograms/milliliter) and bFGF (20 nanograms/milliliter) and grown for 6 days. The NBM supplemented with EGF and […] was then removed and cells were cultured in NBM containing; MP52 plus SHH plus FGF8 (set two); MP52 plus SHH plus FGF8 plus retinoic acid (RA) (set three); or MP52 plus RA (set four) for a further 7 days of culture.
# At the end of the 17-day experimental period, RNA was isolated from the induced cell population using an Rneasy kit (RNeasy Mini kit, Qiagen, Valencia, Calif.). […]
# [3] = system: embryonic rat dopaminergic neurons; settings: in vitro; cited from earlier work
# [4] = system: adult rat nigrostriatal dopaminergic system; settings: intraparenchymal injection; cited from earlier work
# [5] = immunostain, end of 17-day culture, positive cells / DAPI nucleated cells
molecule,measurement,setting,value
"MP52: human recombinant GDF5 protein, 120 amino acid residues with alanine at the N-terminus, from Biopharm GmbH (protein, UniProt P43026 382-501, looked up) Growth/differentiation factor …: APLATRQGKRPSKNLKARCSRKALHVNFKDMGWDDWIIAPLEYEAFHCEGLCEFPLRSHLEPTNHAVIQTLMNSMDPESTPPTCCVPTRLSPISILFIDSANNVVYKQYEDMVVESCGCR","differentiation towards an astrocytic phenotype (GFAP expression), in words",[1]; immunocytochemistry,increased expression
same,"Nurr1 expression, in words","[2]; postpartum cell cultures (umbilicus and placenta), compared to control (NBM plus EGF plus FGF8)",induced
same,"Tyrosine hydroxylase (TH) expression, in words","[2]; umbilical cell cultures, compared to control",induced
same,survival-promoting action on dopaminergic neurons against MPP+,[3],survival-promoting actions
"GDF5: growth and differentiation factor protein of the TGF-beta superfamily (literature studies) (protein, UniProt P43026 382-501, looked up) Growth/differentiation factor …: APLATRQGKRPSKNLKARCSRKALHVNFKDMGWDDWIIAPLEYEAFHCEGLCEFPLRSHLEPTNHAVIQTLMNSMDPESTPPTCCVPTRLSPISILFIDSANNVVYKQYEDMVVESCGCR",protection of nigrostriatal dopaminergic system from death induced by 6OHDA lesion,[4],protects
"NBM + MP52: neurobasal medium containing MP52 at 20 nanograms/milliliter (protein, UniProt P43026 382-501, looked up, in neurobasal medium, 20 ng/mL, neurobasal medium containing MP52 at 20 nanograms/milliliter) Growth/differentiation factor …: APLATRQGKRPSKNLKARCSRKALHVNFKDMGWDDWIIAPLEYEAFHCEGLCEFPLRSHLEPTNHAVIQTLMNSMDPESTPPTCCVPTRLSPISILFIDSANNVVYKQYEDMVVESCGCR",Percentage of cells staining positive for GFAP,[1]; [5],≧80%
same,Percentage of cells staining positive for TH,[1]; [5],6.1%
same,Percentage of cells staining positive for TuJ1,[1]; [5],12.5%
